Assay results: paper PMC4534181

Molecular target: wild-type α1-antitrypsin (recombinant) (human) (UniProt P01009)
Assay: native MS; 15 μM α1-antitrypsin incubated with TTAI at peptide:protein molar ratios 0.1:1 to 5:1 for 3 days at 37.5°C in phosphate buffer pH 7.4; exchanged into 200 mM ammonium acetate pH 8; nanoelectrospray, Synapt

Sequence of UniProt P01009 (P01009 25-418): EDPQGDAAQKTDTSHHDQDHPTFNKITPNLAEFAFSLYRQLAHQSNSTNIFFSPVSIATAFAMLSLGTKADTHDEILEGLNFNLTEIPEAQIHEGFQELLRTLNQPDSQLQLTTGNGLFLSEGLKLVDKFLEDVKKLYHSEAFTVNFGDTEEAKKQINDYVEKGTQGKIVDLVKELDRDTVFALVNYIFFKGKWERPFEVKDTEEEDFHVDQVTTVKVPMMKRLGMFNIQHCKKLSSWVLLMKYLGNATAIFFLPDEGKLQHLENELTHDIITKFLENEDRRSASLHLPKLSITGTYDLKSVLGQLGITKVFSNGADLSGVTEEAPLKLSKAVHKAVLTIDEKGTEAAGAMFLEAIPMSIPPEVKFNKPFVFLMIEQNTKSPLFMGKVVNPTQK

Ac-TTAI-NH2 [reactive loop analogue tetrapeptide Thr-Thr-Ala-Ile (TTAI)] showed a stoichiometry N of 2 copies.
